These are literature values, as cited in publication PMC3727217.

The series has as its target His87 (UniProt position 88, YGATGHPGIIP). Description: NMR. The conditions noted are these: not stated (context implies ligand-free FKBP12; ref 47 studied both the absence and presence of ligands).

With “FK506-binding protein FKBP12 (peptidyl-prolyl cis-trans isomerase FKBP1A) (Homo sapiens)”, the pKa is reported as 5.92.
